Source: patent US20180155451A1 (published 2018)

The binders below were run against T1, FcγRIa extracellular domain with C-terminal His tag (human, UniProt P12314 16-292) (assay: SPR Biacore, relative FcγRIa binding vs GpH7-B3/GpL16-k0).
T1 construct: extracellular domain; also called FcgRI; CD64; not shown: His tag at the C terminus
T1 sequence (P12314 16-292): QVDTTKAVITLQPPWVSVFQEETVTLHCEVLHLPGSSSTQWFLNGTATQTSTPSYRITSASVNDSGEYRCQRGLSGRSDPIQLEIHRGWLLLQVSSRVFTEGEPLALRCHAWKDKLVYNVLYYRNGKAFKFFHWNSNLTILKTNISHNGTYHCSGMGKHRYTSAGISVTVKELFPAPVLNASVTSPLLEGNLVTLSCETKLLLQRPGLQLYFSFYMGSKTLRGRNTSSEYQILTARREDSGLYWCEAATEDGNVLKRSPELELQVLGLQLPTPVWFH

Row | Ho/Con_1a | Binder
1 | 99.1 % of HoCon Ab (=100) | GpH7-B3 variant Q295_16H/GpL16-k0 (antibody, human IgG1, kappa, mutation in both H chains; also called Ho Ab Q295_16H; Q295H) heavy: not shown light: DIVMTQSPLSLPVTPGEPASISCQASESLVHSNRNTYLHWYLQKPGQSPQLLIYKVSNRFSGVPDRFSGSGSGTDFTLKISRVEAEDVGVYYCSQNTHVPPTFGQGTKVEIERTVAAPSVFIFPPSDEQLKSGTASVVCLLNNFYPREAKVQWKVDNALQSGNSQESVTEQDSKDSTYSLSSTLTLSKADYEKHKVYACEVTHQGLSSPVTKSFNRGEC
2 | 101 % of HoCon Ab (=100) | GpH7-B3 variant S239_01G/GpL16-k0 (antibody, human IgG1, kappa, mutation in both H chains; also called Ho Ab S239_01G; S239G) heavy: not shown light: DIVMTQSPLSLPVTPGEPASISCQASESLVHSNRNTYLHWYLQKPGQSPQLLIYKVSNRFSGVPDRFSGSGSGTDFTLKISRVEAEDVGVYYCSQNTHVPPTFGQGTKVEIERTVAAPSVFIFPPSDEQLKSGTASVVCLLNNFYPREAKVQWKVDNALQSGNSQESVTEQDSKDSTYSLSSTLTLSKADYEKHKVYACEVTHQGLSSPVTKSFNRGEC
3 | 101 % of HoCon Ab (=100) | GpH7-B3 variant Q295_18N/GpL16-k0 (antibody, human IgG1, kappa, mutation in both H chains; also called Ho Ab Q295_18N; Q295N) heavy: not shown light: DIVMTQSPLSLPVTPGEPASISCQASESLVHSNRNTYLHWYLQKPGQSPQLLIYKVSNRFSGVPDRFSGSGSGTDFTLKISRVEAEDVGVYYCSQNTHVPPTFGQGTKVEIERTVAAPSVFIFPPSDEQLKSGTASVVCLLNNFYPREAKVQWKVDNALQSGNSQESVTEQDSKDSTYSLSSTLTLSKADYEKHKVYACEVTHQGLSSPVTKSFNRGEC
4 | 97 % of HoCon Ab (=100) | GpH7-B3 variant Q295_15Y/GpL16-k0 (antibody, human IgG1, kappa, mutation in both H chains; also called Ho Ab Q295_15Y; Q295Y) heavy: not shown light: DIVMTQSPLSLPVTPGEPASISCQASESLVHSNRNTYLHWYLQKPGQSPQLLIYKVSNRFSGVPDRFSGSGSGTDFTLKISRVEAEDVGVYYCSQNTHVPPTFGQGTKVEIERTVAAPSVFIFPPSDEQLKSGTASVVCLLNNFYPREAKVQWKVDNALQSGNSQESVTEQDSKDSTYSLSSTLTLSKADYEKHKVYACEVTHQGLSSPVTKSFNRGEC
5 | 102 % of HoCon Ab (=100) | GpH7-B3 variant Q295_14T/GpL16-k0 (antibody, human IgG1, kappa, mutation in both H chains; also called Ho Ab Q295_14T; Q295T) heavy: not shown light: DIVMTQSPLSLPVTPGEPASISCQASESLVHSNRNTYLHWYLQKPGQSPQLLIYKVSNRFSGVPDRFSGSGSGTDFTLKISRVEAEDVGVYYCSQNTHVPPTFGQGTKVEIERTVAAPSVFIFPPSDEQLKSGTASVVCLLNNFYPREAKVQWKVDNALQSGNSQESVTEQDSKDSTYSLSSTLTLSKADYEKHKVYACEVTHQGLSSPVTKSFNRGEC

More lines, now with the values behind:

Row | Binder | Ho/Con_1a
6 | GpH7-B3 variant Q295_11K/GpL16-k0 (antibody, human IgG1, kappa, mutation in both H chains; also called Ho Ab Q295_11K; Q295K) heavy: not shown light: DIVMTQSPLSLPVTPGEPASISCQASESLVHSNRNTYLHWYLQKPGQSPQLLIYKVSNRFSGVPDRFSGSGSGTDFTLKISRVEAEDVGVYYCSQNTHVPPTFGQGTKVEIERTVAAPSVFIFPPSDEQLKSGTASVVCLLNNFYPREAKVQWKVDNALQSGNSQESVTEQDSKDSTYSLSSTLTLSKADYEKHKVYACEVTHQGLSSPVTKSFNRGEC | 99.9 % of HoCon Ab (=100)
7 | GpH7-B3 variant Q295_13S/GpL16-k0 (antibody, human IgG1, kappa, mutation in both H chains; also called Ho Ab Q295_13S; Q295S) heavy: not shown light: DIVMTQSPLSLPVTPGEPASISCQASESLVHSNRNTYLHWYLQKPGQSPQLLIYKVSNRFSGVPDRFSGSGSGTDFTLKISRVEAEDVGVYYCSQNTHVPPTFGQGTKVEIERTVAAPSVFIFPPSDEQLKSGTASVVCLLNNFYPREAKVQWKVDNALQSGNSQESVTEQDSKDSTYSLSSTLTLSKADYEKHKVYACEVTHQGLSSPVTKSFNRGEC | 101 % of HoCon Ab (=100)

The binders below were run against T1, FcγRIa extracellular domain with … (assay: SPR Biacore, relative FcγRIa binding vs GpH7-A5/GpH7-B3/GpL16-k0).

Row | He/Con_1a | Binder
8 | 103 % of HeCon Ab (=100) | GpH7-A5/GpH7-B3 variant Q295_05P/GpL16-k0 (antibody, human IgG1, kappa, mutation in one H chain only; also called He Ab Q295_05P; Q295P) heavy 1: not shown heavy 2: not shown light: DIVMTQSPLSLPVTPGEPASISCQASESLVHSNRNTYLHWYLQKPGQSPQLLIYKVSNRFSGVPDRFSGSGSGTDFTLKISRVEAEDVGVYYCSQNTHVPPTFGQGTKVEIERTVAAPSVFIFPPSDEQLKSGTASVVCLLNNFYPREAKVQWKVDNALQSGNSQESVTEQDSKDSTYSLSSTLTLSKADYEKHKVYACEVTHQGLSSPVTKSFNRGEC
9 | 101 % of HeCon Ab (=100) | GpH7-A5/GpH7-B3 variant Q295_11K/GpL16-k0 (antibody, human IgG1, kappa, mutation in one H chain only; also called He Ab Q295_11K; Q295K) heavy 1: not shown heavy 2: not shown light: DIVMTQSPLSLPVTPGEPASISCQASESLVHSNRNTYLHWYLQKPGQSPQLLIYKVSNRFSGVPDRFSGSGSGTDFTLKISRVEAEDVGVYYCSQNTHVPPTFGQGTKVEIERTVAAPSVFIFPPSDEQLKSGTASVVCLLNNFYPREAKVQWKVDNALQSGNSQESVTEQDSKDSTYSLSSTLTLSKADYEKHKVYACEVTHQGLSSPVTKSFNRGEC
10 | 104 % of HeCon Ab (=100) | GpH7-A5/GpH7-B3 variant Q295_03V/GpL16-k0 (antibody, human IgG1, kappa, mutation in one H chain only; also called He Ab Q295_03V; Q295V) heavy 1: not shown heavy 2: not shown light: DIVMTQSPLSLPVTPGEPASISCQASESLVHSNRNTYLHWYLQKPGQSPQLLIYKVSNRFSGVPDRFSGSGSGTDFTLKISRVEAEDVGVYYCSQNTHVPPTFGQGTKVEIERTVAAPSVFIFPPSDEQLKSGTASVVCLLNNFYPREAKVQWKVDNALQSGNSQESVTEQDSKDSTYSLSSTLTLSKADYEKHKVYACEVTHQGLSSPVTKSFNRGEC
11 | 103 % of HeCon Ab (=100) | GpH7-A5/GpH7-B3 variant Q295_07I/GpL16-k0 (antibody, human IgG1, kappa, mutation in one H chain only; also called He Ab Q295_07I; Q295I) heavy 1: not shown heavy 2: not shown light: DIVMTQSPLSLPVTPGEPASISCQASESLVHSNRNTYLHWYLQKPGQSPQLLIYKVSNRFSGVPDRFSGSGSGTDFTLKISRVEAEDVGVYYCSQNTHVPPTFGQGTKVEIERTVAAPSVFIFPPSDEQLKSGTASVVCLLNNFYPREAKVQWKVDNALQSGNSQESVTEQDSKDSTYSLSSTLTLSKADYEKHKVYACEVTHQGLSSPVTKSFNRGEC
